From PMC1865076

Legend:
[1] = biological target: T1, His6-Ovol1 (UniProt Q9WTJ2 1-267); experiment: EMSA
[2] = biological target: c-Myb R2R3 (chicken, UniProt P01103 87-193); experiment: EMSA
[3] = biological target: T1, His6-Ovol1; experiment: competition

T1 sequence (Q9WTJ2 whole entry): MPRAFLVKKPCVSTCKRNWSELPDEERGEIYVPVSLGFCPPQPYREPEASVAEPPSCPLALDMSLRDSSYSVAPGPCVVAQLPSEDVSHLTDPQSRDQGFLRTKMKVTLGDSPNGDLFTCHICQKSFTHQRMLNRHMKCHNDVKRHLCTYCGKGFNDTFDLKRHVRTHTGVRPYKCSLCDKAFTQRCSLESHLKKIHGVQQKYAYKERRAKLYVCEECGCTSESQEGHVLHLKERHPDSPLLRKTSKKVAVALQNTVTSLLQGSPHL
Chain of c-Myb R2R3 (P01103 87-193): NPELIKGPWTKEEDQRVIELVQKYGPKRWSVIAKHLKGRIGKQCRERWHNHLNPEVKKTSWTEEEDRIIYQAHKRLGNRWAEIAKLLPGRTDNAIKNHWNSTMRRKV

| Binder | binding result [1] | binding result [2] | binding result [3] |
| --- | --- | --- | --- |
| mim-C (dsDNA) DNA 1: GTTGATTTCCATCTGTTATTTGAGCTAAG DNA 2: CTTAGCTCAAATAACAGATGGAAATCAAC | no binding |  |  |
| mim-A (dsDNA) DNA 1: AGCGCTAAAAAACCGTTATAATGTGCAGAT DNA 2: ATCTGCACATTATAACGGTTTTTTAGCGCT |  | binds | binds |
